B1: mAb #1664 (antibody, V domains shown)
VH: EVQVMQSGAEARMTGATVKISCKASGYTFSDYFLHWVKQAPGKGLEWMGLVDVDNGEVRYAEKFQGRVTITADTSTETAYLEMTTVTSGDTAVYYCASTTPRGGNPSVYNYFFVDVWGKGTTVTVSS
VL: QPVLTQSSSASASLGSSVKLTCTLSSGHDNYIIAWHQQQPGKAPRYLMQVGAGGTYNKGSGVPHRFSGSSSGADRYLTISNLQSDDEADYYCETWDSKTVFGGGTTLTVL
B2: mAb TJ5-13 (antibody, V domains shown)
V domain 1: QVQLVQSGAEVKKPGSSVKVSCEASGDTFTTYSGINWVRQAPGQGLEWMGGVLPNFGSPNYAQRFQGRITITVDRSTSLVHMELTNLRSDDTAVYYCTETGAYNSVGYFPYFQFRGQGTLVSVSS
V domain 2: QSVLTQPPSVSGAPGQRVTISCTGSSSNIGADYDVHWYQQLPGTAPKLLIFGNNNRPSGVPDRFSGSKSGTSASLAITGLQAEDEADYYCQSFDKSLSGSFVFGTGTKVTGQ
B3: mAb TJ5-1 (antibody, V domains shown)
VH: EVQLVQSGAEVKKPGASVKVSCKASGYTFTGFYLHWVRQAPGQGLEWMGWINPHSGDTDFAQKFQGKVTMTRDTSSNTVYMDVNRLTSDDTAVYYCVKNDIVLGMGVWGQGTTVIVSS
VL: QSVLTQPPSVSGAPGQRVTISCTGSSSNIGAGYNVYWFQQLPPTAPKLLNYGDNNRPSGVPDRFSASKSGTSASLAITGLQAEDEAEYYCQSYDSSLNAYVFGTGTKVTVL

Key:
COBRA HA TJ2 = COBRA HA TJ2 (COBRA TJ2, designed from influenza A …); assay: BLI; conditions: both partners purified
COBRA HA J4 = COBRA HA J4 (COBRA J4, designed from influenza A …); assay: BLI; conditions: both partners purified

| Binder | Kd (COBRA HA TJ2) [pM] | koff (COBRA HA TJ2) [s⁻¹] | kon (COBRA HA TJ2) [M⁻¹ s⁻¹] | Kd (COBRA HA J4) [pM] | koff (COBRA HA J4) [s⁻¹] | kon (COBRA HA J4) [M⁻¹ s⁻¹] |
| --- | --- | --- | --- | --- | --- | --- |
| B1 | 450 | 5.44e-05 | 121000 | 15200 | 0.000454 | 30100 |
| B2 | 50 | 8.68e-06 | 159000 | 260 | 3.06e-05 | 120000 |
| B3 | 5640 | 0.00348 | 230000 | 230 | 6.67e-05 | 284000 |
